The target in this test is GST-STG^9D (GST-fused C-terminus of STG with nine serine residues replaced with aspartate). Put plainly: pull-down.

B1: flag-tagged μ3 subunit of the adaptor protein AP-3 (μ3A) (natural protein)
chain: MIHSLFLINCSGDIFLEKHWKSVVSQSVCDYFFEAQEKAADVENVPPVISTPHHYLISIYRDKLFFVSVIQTEVPPLFVIEFLHRVADTFQDYFGECSEAAIKDNVVIVYELLEEMLDNGFPLATESNILKELIKPPTILRSVVNSITGSSNVGDTLPTGQLSNIPWRRAGVKYTNNEAYFDVVEEIDAIIDKSGSTVFAEIQGVIDACIKLSGMPDLSLSFMNPRLLDDVSFHPCIRFKRWESERVLSFIPPDGNFRLISYRVSSQNLVAIPVYVKHSISFKENSSCGRFDITIGPKQNMGKTIEGITVTVHMPKVVLNMNLTPTQGSYTFDPVTKVLAWDVGKITPQKLPSLKGLVNLQSGAPKPEENPNLNIQFKIQQLAISGLKVNRLDMYGEKYKPFKGVKYVTKAGKFQVRT
Molecule B1 had an amount of μ3 pulled down (STG^9A = 100%) of 21%.

Source of the values: publication doi:10.1101/2020.11.12.379867.
